The supplement of paper PMC7125110
± gives the standard error. This sample holds only a part of the variants without activity.

B1: glmS ribozyme (parent)
chain: AUAAAAGCGCCAGAACUACAGAAAUGUAGUUGACGAGGAGGAGGUUUAUCGAAUUUUCGGCGGAUGCCUCCAAA

Columns and labels:
Details in all cases: with glucosamine-6-phosphate
glucosamine-6-phosphate [1] = variants of: B1; assay: self-cleavage kobs at 160 uM GlcN6P; higher = faster cleavage; RNA array
Procedure, shortened: (§1)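 kcat and KM were obtained from weighted Michaelis–Menten fits across concentrations of kobs values. Those came from one- or two-exponential decay fits to per-tile medians normalised to baseline and to non-cleaving reference variants. The variants were barcoded ribozymes transcribed in situ by E. coli RNA polymerase on sequenced MiSeq chips and tracked through a hybridised Cy3 probe at 37 °C, with 40 μM to 10 mM glucosamine-6-phosphate in HEPES/KCl/Mg(OAc)2 buffer flowed in.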

glucosamine-6-phosphate [2] = variants of: B1; assay: self-cleavage kobs at 640 uM GlcN6P; higher = faster cleavage; RNA array
Procedure, shortened: as §1

glucosamine-6-phosphate [3] = variants of: B1; assay: self-cleavage kobs at 2500 uM GlcN6P; higher = faster cleavage; RNA array
Procedure, shortened: as §1

glucosamine-6-phosphate [4] = variants of: B1; assay: self-cleavage kobs at 10000 uM GlcN6P; higher = faster cleavage; RNA array
Procedure, shortened: as §1

| Variant | self-cleavage kobs at 160 uM GlcN6P (glucosamine-6-phosphate [1]) [s⁻¹] | self-cleavage kobs at 640 uM GlcN6P (glucosamine-6-phosphate [2]) [s⁻¹] | self-cleavage kobs at 2500 uM GlcN6P (glucosamine-6-phosphate [3]) [s⁻¹] | self-cleavage kobs at 10000 uM GlcN6P (glucosamine-6-phosphate [4]) [s⁻¹] |
| --- | --- | --- | --- | --- |
| G29A A36G C58A | < 1e-05 | < 1e-05 | < 1e-05 | < 1e-05 |
| C16U G32U C70A | < 1e-05 |  |  |  |
| U30G G41C G60A | < 1e-05 |  | < 1e-05 |  |
| U30A U56G | 0.000202 ± 6.6e-05 | 0.00118 ± 0.00024 | 0.0019 ± 0.00059 |  |
| A15C A36G G38U | < 1e-05 |  | < 1e-05 |  |
| G13A G41U G43C | < 1e-05 | < 1e-05 |  |  |
| A15G C16A | 0.000119 ± 4.3e-05 | 0.000305 ± 7.7e-05 | 0.000524 ± 0.00013 |  |
| U31G A33U G38U | < 1e-05 |  |  |  |
| C16U U31C C68U | 6.38e-05 ± 2.3e-05 | 0.000149 ± 3.2e-05 | 0.00018 ± 4e-05 |  |
| A15G U46G G66A C68U | 6.94e-05 ± 1.7e-05 | 0.000307 ± 0.00014 | 0.00078 ± 0.00029 |  |
| G13C C34U | < 1e-05 | < 1e-05 | < 1e-05 | < 1e-05 |
| G13C G29U G37C C71U | < 1e-05 |  |  |  |
| U31A G51A | < 1e-05 | < 1e-05 | < 1e-05 | < 1e-05 |
| G29C C61U C71U | < 1e-05 |  |  |  |
| U31G A33U U47G | < 1e-05 |  |  |  |
| A14C U54C U57A G60A C70U | < 1e-05 | < 1e-05 | < 1e-05 |  |
| A15C G32C G38U | < 1e-05 |  |  |  |
| C16U G37A G40C G43A | < 1e-05 | < 1e-05 | < 1e-05 | < 1e-05 |
| A15C G40A U45A C70G | < 1e-05 | < 1e-05 |  |  |
| U31A G35C A48G | < 1e-05 | < 1e-05 |  |  |
| A12U A15G G41A | 0.000272 ± 4.5e-05 | 0.00098 ± 0.00018 |  |  |
| C16A G35C U47G | < 1e-05 |  | < 1e-05 |  |
| G29A A36U U55G | < 1e-05 | < 1e-05 |  |  |
| U31A C61G | < 1e-05 |  |  | < 1e-05 |
| C16G G43A | < 1e-05 | < 1e-05 |  |  |
| G32C C34A C67G C70A | < 1e-05 |  |  |  |

| Variant | self-cleavage kobs at 160 uM GlcN6P (glucosamine-6-phosphate [1]) [s⁻¹] | self-cleavage kobs at 640 uM GlcN6P (glucosamine-6-phosphate [2]) [s⁻¹] | self-cleavage kobs at 2500 uM GlcN6P (glucosamine-6-phosphate [3]) [s⁻¹] | self-cleavage kobs at 10000 uM GlcN6P (glucosamine-6-phosphate [4]) [s⁻¹] |
| --- | --- | --- | --- | --- |
| G32U G60U | < 1e-05 | < 1e-05 | < 1e-05 |  |
| G29A G35C | < 1e-05 | < 1e-05 | < 1e-05 | < 1e-05 |
| G32U A48G G63C | < 1e-05 |  | < 1e-05 |  |
| G29C C34G U55C | < 1e-05 |  |  |  |
| A14C U47A C58G C67G U69C | 7.17e-05 ± 3.1e-05 | 9.78e-05 ± 3.1e-05 |  |  |
| U30C A36G U57C | < 1e-05 | < 1e-05 | < 1e-05 |  |
| U30A G51U | < 1e-05 | < 1e-05 | < 1e-05 | < 1e-05 |
| G32U A52U | < 1e-05 | < 1e-05 | < 1e-05 |  |
| A15C A39U A42C C67G | < 1e-05 | < 1e-05 | < 1e-05 |  |
| U30C G35U G40U A42G U47C | < 1e-05 | < 1e-05 |  |  |
| G29U U45C U56C | < 1e-05 |  |  |  |
| A15C A39G U56G C61G | < 1e-05 | < 1e-05 | < 1e-05 |  |
| U30A A48C C67G | < 1e-05 |  |  |  |
| G32A A42G U56A C70A | < 1e-05 |  |  |  |
| C16U C34G | < 1e-05 |  |  | < 1e-05 |
| G32U G41U G60A | < 1e-05 |  | < 1e-05 |  |
| A14C G29A U56C U57G | < 1e-05 | < 1e-05 |  |  |
| U30G U57C G62C | < 1e-05 | < 1e-05 |  |  |
| A33C A36G | < 1e-05 | < 1e-05 | < 1e-05 | < 1e-05 |
| G32C G38U G43A C67A | < 1e-05 |  | < 1e-05 |  |
| G13A G43A | < 1e-05 | < 1e-05 |  | < 1e-05 |
| C16U G40A U46C | 0.000137 ± 3.1e-05 |  | 0.000815 ± 0.00018 |  |
| G13U G35C G51C U54A C70U | < 1e-05 |  | < 1e-05 |  |
| U30C C50U U56C | < 1e-05 | < 1e-05 |  |  |
| C16G C67G | 0.000347 ± 0.00013 | 9.56e-05 ± 1.7e-05 | 8.7e-05 ± 1.4e-05 | 6.6e-05 ± 7e-06 |
| A14G A36C | < 1e-05 | < 1e-05 |  |  |

| Variant | self-cleavage kobs at 160 uM GlcN6P (glucosamine-6-phosphate [1]) [s⁻¹] | self-cleavage kobs at 640 uM GlcN6P (glucosamine-6-phosphate [2]) [s⁻¹] | self-cleavage kobs at 2500 uM GlcN6P (glucosamine-6-phosphate [3]) [s⁻¹] | self-cleavage kobs at 10000 uM GlcN6P (glucosamine-6-phosphate [4]) [s⁻¹] |
| --- | --- | --- | --- | --- |
| G13C C34A G35U | < 1e-05 | < 1e-05 | < 1e-05 |  |
| G29U U30G A39U | 8.86e-05 ± 2.1e-05 |  | 0.0013 ± 0.00029 |  |
| C16G A52C | < 1e-05 |  | < 1e-05 |  |
| U30G G32A A48G G62C | < 1e-05 | < 1e-05 | < 1e-05 |  |
| G32C G63U | < 1e-05 | < 1e-05 |  |  |
| G32U G35A A42C | < 1e-05 | < 1e-05 | < 1e-05 |  |
| A12U A15C U45C A48C | < 1e-05 |  | < 1e-05 |  |
| U31C G62U G66C | < 1e-05 |  |  |  |
| A15G G29U C34U | < 1e-05 |  |  |  |
| A14U G21A U56G | 0.00134 ± 0.00038 | 0.0043 ± 0.0012 | 0.00645 ± 0.0026 |  |
| G13A U30A U31A A42C U46G | < 1e-05 |  | < 1e-05 |  |
| A23C A52G U69A | 6.42e-05 ± 2.4e-05 | 9.59e-05 ± 2.5e-05 |  |  |
| A14G A36C G44C G51A G62A | < 1e-05 |  |  |  |
| A15G U31A G35U C67G | < 1e-05 | < 1e-05 | < 1e-05 |  |
| U30A U54A C67U C68A | 3.56e-05 ± 1.7e-05 |  | 4.46e-05 ± 2.1e-05 |  |
| G13U A15G G35C A52U | < 1e-05 | < 1e-05 | < 1e-05 |  |
| G29U A36G A52G | < 1e-05 |  | < 1e-05 |  |
| G13U G37C U45C C68U | < 1e-05 |  | < 1e-05 |  |
| A14C A36G U46G U65A | < 1e-05 | < 1e-05 |  |  |
| G26U U54A | 0.000887 ± 0.00025 | 0.00635 ± 0.002 | 0.00265 ± 0.0013 | 0.0333 ± 0.0093 |
| G29U U49C C50G C70A | 5.5e-05 ± 2.2e-05 | 0.000125 ± 5.5e-05 |  |  |
| G29U A48C G59A | < 1e-05 | < 1e-05 | < 1e-05 | < 1e-05 |
| U30C G35A A39C G40C C68A | < 1e-05 | < 1e-05 |  |  |
| G32A G51C | < 1e-05 | < 1e-05 | < 1e-05 |  |
| A15C G29U C67A | 9.38e-05 ± 3.4e-05 | 0.000156 ± 2.9e-05 | 0.000163 ± 4.2e-05 |  |
| A15U U30G U46G C67G | 5.03e-05 ± 1.7e-05 | 6.26e-05 ± 1.3e-05 | 0.000146 ± 2.2e-05 |  |

| Variant | self-cleavage kobs at 160 uM GlcN6P (glucosamine-6-phosphate [1]) [s⁻¹] | self-cleavage kobs at 640 uM GlcN6P (glucosamine-6-phosphate [2]) [s⁻¹] | self-cleavage kobs at 2500 uM GlcN6P (glucosamine-6-phosphate [3]) [s⁻¹] | self-cleavage kobs at 10000 uM GlcN6P (glucosamine-6-phosphate [4]) [s⁻¹] |
| --- | --- | --- | --- | --- |
| U30G A39U A42U | 0.000126 ± 5.7e-05 |  |  |  |
| G32U G63C | < 1e-05 | < 1e-05 |  | < 1e-05 |
| A15C U30A C67A | 0.000277 ± 6.8e-05 | 0.000357 ± 8.3e-05 | 0.0013 ± 0.0005 |  |
| G13U A14C G32A U46C G63A C68U U69G C71U | < 1e-05 | < 1e-05 |  |  |
| A12U C34A | < 1e-05 | < 1e-05 |  |  |
| U31A G35C U54A A64U | < 1e-05 |  | < 1e-05 |  |
| G32U U45G C70A | < 1e-05 | < 1e-05 |  |  |
| C16A U54A C67A | 4.32e-05 ± 1.9e-05 | 6.57e-05 ± 2.8e-05 | 0.000181 ± 4.8e-05 |  |
| G13C A36G G63C | < 1e-05 | < 1e-05 |  |  |
| U30G G40A | 0.000128 ± 3.7e-05 | 0.000261 ± 6.3e-05 | 0.000813 ± 0.00013 |  |
| A14C C16A U31C G35C U55G | < 1e-05 |  | < 1e-05 | < 1e-05 |
| U30C G59U | < 1e-05 | < 1e-05 | < 1e-05 | < 1e-05 |
| U31A A33G C34U G59C | < 1e-05 | < 1e-05 |  |  |
| A33C G35A | < 1e-05 | < 1e-05 | < 1e-05 | < 1e-05 |
| G29A G41U A53C C58A | < 1e-05 | < 1e-05 | < 1e-05 |  |
| A15C A48C | < 1e-05 |  |  | 4.99e-05 ± 1.2e-05 |
| C16U G40C U47G | 6.77e-05 ± 2.5e-05 | 0.000145 ± 2e-05 | 0.000389 ± 9.2e-05 |  |
| G29A A39U G43U | < 1e-05 |  |  |  |
| G32C G44A A48U | < 1e-05 | < 1e-05 | < 1e-05 |  |
| A14C A48U G60U | < 1e-05 | < 1e-05 |  |  |
| A15U G38C G43C G51U | < 1e-05 | < 1e-05 |  | < 1e-05 |
| G13A C58A | 5.76e-05 ± 2.1e-05 | 0.000121 ± 2.5e-05 | 0.000307 ± 7.3e-05 |  |
| U30G U31G C50A A52U G62U | < 1e-05 |  |  |  |
| G29U C34G G38U G44U | < 1e-05 | < 1e-05 |  |  |
| A15U G32U G37A G62U | < 1e-05 |  |  |  |
